Substitutions are numbered along the chain they refer to.

The chains are these.
B1: HCV 208B-589 (antibody, V domains shown)
VH: QVQLQQSGAGLAKPGASVKMSCKASGYTFTANKMHWAKQRPGQGLEWIGYIDPSSGYTEYNHKIQDKATLTADTSSSTAYMQLSSLTFEDSAVYYCTNFAYWGQGTLVTVSA
VL: DIVMTQTPLTLSVTIGQPASISCKSSQSLLFTNGKTYLNWFLQRPGQSPKRLIYLLSKLDSGVPDRFSGSGSGTDFTLKISRVEAEDLGVYYCLQSTYFPLTFGAGTKLELKR
B2: HCV 208B-547 (antibody, V domains shown)
VH: B1 VH with G10E, A31S, H62Q, Q65K, T74K, F88S
VL: EVVLTQSPAITAASLGQKVTITCRASSSVSYMHWYRQKSGTSPQPWIYEISTLASGVPTRFRASGSGTSYSLTISSMEAEDAAIYYCQQWNYPLTFGAGTKLELKR
B3: HCV 208B-189 (antibody, V domains shown)
VH: QVHLQQSGAELAKPGASVQMSCKASGYTFTANKMHWARQRPRQGLEWIGYIDPASGYTEYNQKIKDRATLTADKSSSTAYMQLSSLTSEDSAVYYCTNFAYWGQGTLVTVST
VL: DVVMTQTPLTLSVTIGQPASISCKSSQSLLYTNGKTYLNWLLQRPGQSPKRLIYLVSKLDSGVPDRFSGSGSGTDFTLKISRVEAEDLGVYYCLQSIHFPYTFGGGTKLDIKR
B4: HCV 208B-174 (antibody, V domains shown)
VH: EVKLEESGGGLVQPGGSMKLSCVASGFSFSSYWMSWVRQSPEKGLDWVAEIRLRSDNYATHYAESVKGRFTISRDDSISRLYLQMNTLRAEDTGIYYCTWMTYWGQGTLVTVSA
VL: QNVLTQSPAIMSASPGEKVTMSCSASSSVTYMFWYQLKPESSPRLLIYDTSNLASGVPVRFSGSGSGTSYSLTISRMEAEDAATYYCQEWSSYPLTFGAGTKLDLKR
B5: HCV 208B-560 (antibody, V domains shown)
VH: EVQLQQSGPELEKPGASVKISCKTSGYTFTEYAMHWVKQSHGMSLEWIGGINPSNGNAIYNQIFKDKATLTVDRSSSTAYMGLRSLTFGDSGVYFCVRRQLDFFDYWGQGASLTVSS
VL: DIVVTQSPASLAVSLGQRATISCRASQSVSTSRYSYLHWYQQKPGQPPKLLIKYASNLESGVPARFSGSGSGTDFTLNIHPVGEEDTATYYCQHSWEFPFTFGSGTKLEIKR
B6: HCV 208A-1064 (antibody, V domains shown)
VH: EVQLQQSGPELVKPGASVKISCKTSGYTFTEYAMHWMKQSHGKSLEWIGGINPTNGDTIYNQKFKDKAKLTVDRSSSTAYMELRSLTSDDSALFYCARRELDYFASWGQGTTLTVSS
VL: B5 VL with V4L, A12I, R18T, Y34F, Y40I, A64V, G83E, Y91F, E109K
B7: HCV 208A-830 (antibody, V domains shown)
VH: EVRLQQPGPEVEKPGASVKISCKTSGYTFTEYAIHWVKQSHGESLEWIGGINPSNGDPIYNQIFKDKATLTVDRSSNTAYMGLRSLTVGDSGVYFCVRRQLDYFDFWGQGASLTVSS
VL: B5 VL with V4L, A25S, T87P
B8: HCV 208A-920 (antibody, V domains shown)
VH: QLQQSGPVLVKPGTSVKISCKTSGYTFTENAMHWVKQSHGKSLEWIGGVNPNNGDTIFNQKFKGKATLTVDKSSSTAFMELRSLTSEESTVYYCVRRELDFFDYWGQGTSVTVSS
VL: B5 VL with V4L, L37M, G83A, T89A
B9: HCV 208B-1094 (antibody, V domains shown)
VH: B6 VH with K63R
VL: DIVLTQSPASLIVSLGQTATISCRASQSLSTSRFSYVHWIQQKPGQPPKLLIKYASNLESGVPVRFSGSGSGTDFTLNIHPVEEEDTATYFCQHSWEFPFTFGSGTKLKIKR
B10: HCV 208A-334 (antibody, V domains shown)
VH: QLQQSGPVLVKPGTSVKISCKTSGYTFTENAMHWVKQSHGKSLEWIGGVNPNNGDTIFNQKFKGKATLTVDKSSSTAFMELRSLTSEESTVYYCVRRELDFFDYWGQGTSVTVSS
VL: B5 VL with V4L, L37M, G83A, T89A, E97G
B11: HCV 208A-159 (antibody, V domains shown)
VH: QLQQSGPAQVKPGASVMISCKTSGYTFTENAMHWVKQSHGKSLEWIGGVNPNNGDTIFNQKFKDKAALTVDKSSSTAFMELRSLTSEESTVYYCVRRELDFFDYWGQGTSVTVSS
VL: B5 VL with V4L, L37V, S56A, G83A, T87A, T89A
B12: HCV 208B-556 (antibody, V domains shown)
VH: B11 VH with A8V, Q9L, D64G, A67T, L81F
VL: B5 VL with V4L, L37M, G83A
B13: HCV 208A-133 (antibody, V domains shown)
VH: B11 VH with A8V, Q9L, K11G, K36E, D64G, A67T, L81F
VL: B5 VL with V4L, L37M, G83A
B14: HCV 208A-222 (antibody, V domains shown)
VH: B5 VH with K19R, M43K, S54N, F103Y
VL: B5 VL
B15: HCV 208B-251 (antibody, V domains shown)
VH: B11 VH with A8V, Q9L, M17K, F58Y, D64G, A67T, T90P, Y93F
VL: B5 VL with V4L, Q17K, R18K, L37M, Q46H, G83A, T89A
B16: HCV 208A-605 (antibody, V domains shown)
VH: B5 VH with M34I
VL: B5 VL
B17: HCV 208A-638 (antibody, V domains shown)
VH: QGQLQQPGAEFVKPGASLKLSCRASGYTFTSYWIHWVKQRPGQGLEWIGEVDPSDSYINQNEKFRGKATLTVDKSSSTAYMQLGSLTSEDSAVYYCARHYYGVLDSWGQGTALTVSS
VL: QIVLTQSPTIMSASLGERVTMTCTASSSVSSSYLHWFQQKPGSSPKLWIYSTSNLASGVPPRFSGSGSGTSYSLSISSVEAEDVATYYCLQFHRSPWTFGGGAKLEIKR
B18: HCV 208A-877 (antibody, V domains shown)
VH: QLQQSGPELVKPGASVKISCKTSGYTFTENAMHWVKQSRGKSLEWIGGVNPNNGDTVYTQKFKGKATLTVAKSSSTAYMELRTMTCEESTVYYCASREPDFFDYWGQGSSVTVSS
VL: QIVLTQSPAIMSVSPGEKVSMTCSASSSVTYMHWYQQKSGTSPKRWIYDTSELASGVPARFSGSGSGTTYSLTISSMEAEDAATYYCQQWSNKPLTFGAGTKLELKR
B19: HCV 208A-352 (antibody, V domains shown)
VH: QGQMQQSGAELVKPGASVKLSCKTSGFTFSSSFISWLKQKPGQSLEWIAWIYAGTGNTNYNQKFTDKAQLTVDTSSSTAYMQFSSLTTEDSAIYYCAISGTGFTYWGQGTLVTVSA
VL: DVLMAQTPLSLPVTLGDQASISCRSSQSLVHSNGNTYLEWFLQKPGQSPKLLIYNVSNRFSGVPDRFSGSGSGTDFTLKISRVEAEDLGVYYCFQGSHVPLTFGSGTKLEIKR
B20: HCV 208A-134 (antibody, V domains shown)
VH: B19 VH with V12A, F33Y, F83L
VL: EVLMTQSPLSLPVSLGDQASISCRSSQSLEHTNGNTYLEWFLQRPGQPPKLLIYKVSSRFSGVPDRFSGSGSGTDFTLKISRVEAEDLGVYYCFQGSHVPFTFGSGTKLAIKR
B21: HCV 208B-471 (antibody, V domains shown)
VH: QGQLQQSGPVLVKPGASEILYCKTSGFTFSSTYISWLKQKPGQSLEWIAWIYAGTGATNYNQKFTGKAQLTVDASSNTAYMHFSGLTPEDSAIYYCAISGAGVYWGQGTLVTVSA
VL: B19 VL with L3V, A5T, T14S, V30L, F41Y, K50N, T77A, E84G, S105A, I111L
B22: HCV 208B-1024 (antibody, V domains shown)
VH: EVQLVESGGDLVKPGGSLKLSCAASGFTFSNYGMSWVRQTPDKRLEWVATISSGGSYSYYPDSVKGRFTISRDNAKNILYLQMSSLKSEDTAMYYCASLYYGYGDYWGQGTAFTVSS
VL: B19 VL with A5T, T14S, L29I, F41Y, P45L, N55R, L101W, S105G
B23: HCV 208A-983 (antibody, V domains shown)
VH: B19 VH with F33Y, I34F, N59I, S75A, Y80F, F83L, T88I
VL: B19 VL with A5T, T14N, V30L, L101F, E110A
B24: HCV 208B-281 (antibody, V domains shown)
VH: B19 VH with M4L, F33Y, K40R, N57G, T104I
VL: B19 VL with A5T, T14S, S32N, N55K, L101F

This assay addresses HCV Core 134-171-TT peptide (ALRZ-9 peptide) (HCV-1). Nature of the assay: SPR, captured mAb.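 Further: Anti-HCV Core mAbs from hybridoma supernatants held on a rabbit anti-mouse IgG CM5 surface, peptide flowed over 3 min then 4 min dissociation, duplicate concentrations.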 For orientation: SPR reads the build-up and loss of mass on a sensor chip optically.
For orientation: Kd means the constant that tells how readily two partners part at equilibrium. For orientation: koff means a measure of how fast the partners let go of each other. In general, kon refers to a measure of how fast the partners come together. Read a high kon as faster complex formation. As for B1, the equilibrium dissociation constant (Kd) turned out to be 630 pM, the off-rate constant (koff) was found to be 0.00061 s⁻¹ and the kon was found to be 960000 M⁻¹ s⁻¹.
Take B2: the dissociation constant Kd was 3200 pM, the koff amounted to 0.0049 s⁻¹ and the kon was found to be 1.6e+06 M⁻¹ s⁻¹.
The matching figures for B3: 170 pM, 0.00015 s⁻¹ and 880000 M⁻¹ s⁻¹.
B4 came in with a Kd of 250 pM, a koff of 0.00018 s⁻¹ and a kon of 760000 M⁻¹ s⁻¹.
Regarding B5, the Kd turned out to be 230 pM, the koff worked out at 0.00026 s⁻¹ and the on-rate (kon) was 1.1e+06 M⁻¹ s⁻¹.
In turn, B6 gave a Kd of 210 pM, a dissociation rate constant (koff) of 0.00034 s⁻¹ and a kon of 1.6e+06 M⁻¹ s⁻¹.
The matching figures for B7: 160 pM, 0.00054 s⁻¹ and 3.4e+06 M⁻¹ s⁻¹.
For the molecule B8, the Kd turned out to be 390 pM, the koff was found to be 0.00056 s⁻¹ and the kon amounted to 1.5e+06 M⁻¹ s⁻¹.
The matching figures for B9: 160 pM, 0.00025 s⁻¹ and 1.5e+06 M⁻¹ s⁻¹.
The matching figures for B10: 340 pM, 0.00057 s⁻¹ and 1.7e+06 M⁻¹ s⁻¹.
The molecule B11 displayed a Kd of 450 pM, a koff of 0.00065 s⁻¹ and a kon of 1.4e+06 M⁻¹ s⁻¹.
Turning to B12, the Kd came out at 400 pM, the koff was found to be 0.0006 s⁻¹ and the kon worked out at 1.5e+06 M⁻¹ s⁻¹.
For B13, in that order: 410 pM, 0.0005 s⁻¹ and 1.2e+06 M⁻¹ s⁻¹.
Consider B14, for which the affinity, expressed as Kd, was 310 pM; the koff was 0.00035 s⁻¹; the kon was determined as 1.1e+06 M⁻¹ s⁻¹.
As for B15, the Kd came to 580 pM, the koff was determined as 0.00065 s⁻¹ and the on-rate constant (kon) amounted to 1.1e+06 M⁻¹ s⁻¹.
In the case of B16, binding was put at a Kd of 430 pM, the koff was found to be 0.00037 s⁻¹ and the kon came out at 870000 M⁻¹ s⁻¹.
In the case of B17, binding was put at a Kd of 200 pM, the koff worked out at 0.00053 s⁻¹ and the kon is 2.7e+06 M⁻¹ s⁻¹.
The matching figures for B18: 2200 pM, 0.0024 s⁻¹ and 1.1e+06 M⁻¹ s⁻¹.
The matching figures for B19: 520 pM, 5.4e-05 s⁻¹ and 100000 M⁻¹ s⁻¹.
The matching figures for B20: 2100 pM, 3.8e-05 s⁻¹ and 18000 M⁻¹ s⁻¹.
As to B21, binding was characterised by a dissociation constant (Kd) of 250 pM, the off-rate (koff) was determined as 5.5e-05 s⁻¹ and the kon turned out to be 220000 M⁻¹ s⁻¹.
For B22, in that order: 15000 pM, 0.014 s⁻¹ and 1e+06 M⁻¹ s⁻¹.
In turn, B23 registered a Kd of 460 pM, an off-rate (koff) of 4.6e-05 s⁻¹ and a kon of 97000 M⁻¹ s⁻¹.
The matching figures for B24: 96000 pM, 0.00025 s⁻¹ and 2200 M⁻¹ s⁻¹.
